In patent publication US20250163122A1, “COMPOSITIONS AND METHODS FOR TREATING AIRWAY MUCUS DYSFUNCTION” (BOARD OF REGENTS, THE UNIVERSITY OF TEXAS SYSTEM, priority 2022, published 2025):
Each block holds one binder with its values, some of them ahead of it. Bridges are numbered along the chain shown (N, C = ends). Where no end group is shown, it is not given here. [ ]: non-standard residue; d: D form. S5 = C=CCCC[C@](C)(N)C(=O)O

Experiments:
[1] = target: T1, Syt1 C2B (Homo sapiens (Human), UniProt P21579 272-422); assay: bulk fluorescence anisotropy, Cy3-labeled peptide with varying concentrations of unlabeled C2B; Hill fit with coefficient constrained to one
T1 construct: Expressed as a GST fusion in E. coli and the tag cleaved with PreScission protease; also called C2B domain of Syt1; Syt1C2B, aa 271-421
T1 sequence (P21579 272-422 limits assumed): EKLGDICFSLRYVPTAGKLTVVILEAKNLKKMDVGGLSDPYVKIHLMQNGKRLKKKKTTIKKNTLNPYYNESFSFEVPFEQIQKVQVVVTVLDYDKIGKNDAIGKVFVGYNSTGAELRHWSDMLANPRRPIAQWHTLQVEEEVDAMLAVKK

[2] = target: T2, Syt2 C2B (Rattus norvegicus (Rat), UniProt P29101 272-422); assay: as above
T2 construct: also called C2B domain of Syt2
T2 sequence (P29101 272-422 limits assumed): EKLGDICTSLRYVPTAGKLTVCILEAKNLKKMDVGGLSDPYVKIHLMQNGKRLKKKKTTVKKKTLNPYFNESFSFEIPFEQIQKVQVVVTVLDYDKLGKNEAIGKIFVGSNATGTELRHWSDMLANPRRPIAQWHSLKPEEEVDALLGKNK

[3] = target: T1, Syt1 C2B; assay: bulk fluorescence anisotropy, Cy3-labeled peptide with varying concentrations of C2B
[4] = target: T2, Syt2 C2B; assay: as above

Kd [1]: 24 µM
Kd [2]: 35 µM
B1: SP9-Cy3 (peptide)
peptide: Ac-EE[S5]KDA[S5]IR[S5]LVM[S5]DEQ
modifications: staple 10-14, 3-7; not fully specified (C-terminus); printed as Ac-EE(S5)KDA(S5)IR(S5)LVM(S5)DEQ-(C/Cy3Mal)-amide; also: Cy3 maleimide on C-terminal Cys
notes: Synthetic hydrocarbon-stapled peptide; This Cy3-labeled form was used in the bulk fluorescence anisotropy assay, diluted to 10 nM; also called Cy3 labeled SP9; Cy3-labeled SP9

binding result [3]: no binding
binding result [4]: no binding
B2: P0-Cy3 (peptide)
peptide: EESKDAGIRTLVMLDEQGEQLD-{C(Cy3 maleimide)-NH2}
notes: Labeled control peptide of the anisotropy assay; also called PO-Cy3; Cy3-labeled P0
